Measured values reported in FireProtDB (doi:10.1021/bi020450z).

Details: Bos taurus; pH 8.5; Thermal; CD; Glycine; reversible: YES; whole UniProt chain shown

B1: Adrenodoxin, mitochondrial wild type, P00257 (protein)
chain: MAARLLRVASAALGDTAGRWRLLARPRAGAGGLRGSRGPGLGGGAVATRTLSVSGRAQSSSEDKITVHFINRDGETLTTKGKIGDSLLDVVVQNNLDIDGFGACEGTLACSTCHLIFEQHIFEKLEAITDEENDMLDLAYGLTDRSRLGCQICLTKAMDNMTVRVPDAVSDARESIDMGMNSSKIE
- Tm: 51.9 °C
